Experimental data as given in the supplement of paper PMC12764529.
± gives the half width of the 95% confidence interval.

Test: folding stability dG unfold from chymotrypsin proteolysis; higher = more stable
Method: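 Folding stability of de novo designed mini-proteins (<80 aa, no Cys; designed by TrROS, TrMRF, ProteinMPNN and the joint model) was measured by cDNA display proteolysis with trypsin and chymotrypsin. Each protease was used at 11 concentrations in a threefold dilution series plus a no-protease condition. K50 was inferred by Bayesian fitting of sequencing counts, and dG unfold was derived against a sequence-predicted unfolded-state K50 (Tsuboyama et al. method). Sequences shown include variable-length N-terminal GS-type padding (SAGGSAGG...) inside a display construct carrying a PA tag. Rows were kept only if the AF2 dimer inter-PAE was >15, to exclude likely homo-oligomers.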

Sequence | folding stability dG unfold [kcal/mol]
SAGGSAGGSAGSSSFIRKGKDGSRITATPSPSYITISTFPLKGGGIVPSTKTTTLPPSLLSAGGSAGGSAGG [r11_88_JUSTAS] | -0.915 ± 0.45
SADKEAVRKIAEKFMQEPGFEPRGISPDGHIMFRPPGQGRMYRIDIDVEKDNDGLDVKIPDIEPVPMPDSAG [r14_20_TrROS] | -0.0277 ± 0.31
SAGGSAGGSAGGSKIEVYKEPNKITIVIHPGNKPLVFTATEPIPIETLIKKAREAFPDASAGGSAGGSAGGS [r4_191_TrMRF] | 0.516 ± 0.12
SAGGSAGGSAGSEVEKARNAALEARRAGVEEVTITMPEELKEKVTALAKEEGINLKIESESAGGSAGGSAGG [r11_371_JUSTAS] | 0.0457 ± 0.19
SAGGSAGGSAGGPLPVTVTVLERTHYPEEGLYTVKTEGGTVITLPPELIDKHPPGSTVLLSAGGSAGGSAGG [r11_124_JUSTAS] | -0.736 ± 0.82
SAGGSAGGSIPPGEEVPLRIKIWNPDNGKPRNEIPITMWVGDAEEIAEEFASTFPGYRVEIDPSAGGSAGGS [r12_21_TrROS] | 0.717 ± 0.23
SSPVVVSESTDPNSSTKTITVTLPPNARVTLTLPGEPVETRPQPDATATLTTGPDALDITIEPLPPGVPLSA [r9_221_JUSTAS] | 0.474 ± 0.1
SAGKTIYIQGPLDELRKLPEIKEVEKTGNHWTLELPNVPIHIEIEPPPPVPVVPPEMPKEQMKEYMKKMSAG [r5_2_TrROS] | 0.646 ± 0.32
SAGGSAGGSAMRAVVVAFPPDGPPRVFPTDDLAPDERRVTFDPETGELALIEVLPEDGDPASAGGSAGGSAG [r3_356_TrMRF] | 0.0788 ± 0.23
SAGGSAGGSAGGGMILNITLIRPDGKPIVIEGPLDKPLYNPKKAGIENIPPEKLVKVEPRSAGGSAGGSAGG [r7_745_TrMRF] | -0.891 ± 0.8
SAGGSAGGSGGMMVTITLPPGVPPSVVRAALEPLGVRVEVRPVPPVVPFRYPEPGELVFSPLGSAGGSAGGS [r12_80_JUSTAS] | 0.373 ± 0.17
SAGGSAGGSAGGPSSLLDGTPVELSVSPVEVNSVSTVTLPNGSTVPVSKKVKKTVVSVVASAGGSAGGSAGG [r7_90_JUSTAS] | 0.61 ± 0.075
SAAKPVVIEVGFDGKPVTVVVYPNPGRVRAYVPATNAVSEATVGEDGEVNLLLYNPADGKPLPANITVPSAG [r14_656_TrMRF] | -0.973 ± 0.39
SAGGSAGGSMIVVPLERELDPSEPGLTKEEVKAILEAKGLDVVDIKVSTDPAKGLTRAVAKVKSAGGSAGGS [r12_1052_JUSTAS] | -0.851 ± 0.35
SAGGSAGGSAGGAIEEARDLAKEGGPWEATIPVYDPNGGPKTIKIRVEVERDPENGKFKSAGGSAGGSAGGS [r10_346_TrROS] | 0.257 ± 0.12
SAGGMKITVTPSTDPNTPLTRETVTVPPTADPEAVAEKLRRAYPDGSTTTVTPRPDGTIVVTTTLPASAGGS [r8_255_JUSTAS] | 0.181 ± 0.083
SAGGSAMTPQTLTLPDGTQVTVYYDPSTGKYTITTTTTTPTAQGTGPTTTTTKTVDSEEELLAYLSSAGGSA [r15_31_JUSTAS] | 4.37 ± 0.13
SALEPGEWRKVTAEIPLPGGPLKLEIYEWPSNGHYYADIRNPGNGRPVEIPFPFDTPDDAVDEAKDFIRSAG [r14_65_TrROS] | 0.101 ± 0.4
SAGGAPLAERTEPLPDGRTVRRVLEYDPEKRTVRVRTERWAPDGAAEPAEEVLDVPESATSPEFLLASAGGS [r8_461_JUSTAS] | -0.606 ± 0.21
SAGGSAGGSVTAVPIEELIPLPTPRTLKVTGTVYVLPGGEVVTERTLTEPSPGTVTVETKTIPLSAGGSAGG [r6_727_JUSTAS] | -0.517 ± 0.4
SAGGAPDIPILTASYSPDGVLYSSTTTPINGTLHYFPEDNPVVLATDPATGLTVPVGTLEDVKRLIASAGGS [r8_232_TrMRF] | 0.208 ± 0.14
SAGGSAGGSGNPTPPAEPTVTLSTSDWNEVKERVEKAGLEYETFPGEGKVTLPASDFEKIKEESAGGSAGGS [r12_325_JUSTAS] | 0.356 ± 0.049
SAGGSAMVVVKITNPNGEKIEIEIEAETEEEAKKAAEELAKKLPKNVKVEVVKVEKVEVKDGKILKSAGGSA [r15_469_TrROS_Hall] | -0.919 ± 0.74
SAGSSRIIFYPENNTYLIETPEGSFTLPETVTTTTPAPTGENPDRTVPRPTTTYVATELSLEEAEKLLSSAG [r5_234_JUSTAS] | 0.367 ± 0.051

Sequence | folding stability dG unfold [kcal/mol]
SAGGSAIKPGDPYVRIKFRMGNEPMEFTIPAEKIKKITVDDPDDQVTIRFPGNGRKFPMKLEEVEISAGGSA [r15_495_TrROS] | -0.316 ± 0.33
VSPLDLEGPGGLPPSELRRVSVLREETDPSVGEKRLSPVGTLFVPKDTSPEEVEAIIAARPDITRVEVRLLS [r1_132_JUSTAS] | 0.502 ± 0.067
SAGGSAGSHNQSPDGITLDAPLSSEEEIEALVAEVKAAAPPTYTVTVERTRSPSTLSVDVIVTAAPSAGGSA [r15_80_JUSTAS] | -0.579 ± 0.19
SAGGSAGGSAGPTITYHPDGRVRIDLHLPNGELLDTGVITPDEAVRLLLETGVRLRTIRPSAGGSAGGSAGG [r11_521_TrMRF] | 0.662 ± 0.11
SAGGSITTEKSLPETNLTLKTTYEGDTETVEIYHHPESDTPVLLAKETVTFSPDGSVSRKSTVVKIESAGGS [r8_69_JUSTAS] | -0.0855 ± 0.17
SAGGGPMPKPVEEVVEEEEDGLRVTTRITYLPTSSTTVVRTTRTVFDPRNGRPLETEELTETVPPGSSAGGS [r16_709_JUSTAS] | -0.0368 ± 0.23
SAGGSAGGSAGGSDMEIVPRRIPDGFRLMVARNPEGTYTVQVWNPNGKPKWETIPPDEISAGGSAGGSAGGS [r4_120_TrROS] | -0.185 ± 0.22
SAGGSAGGSELRVLDARPTPDGLVVNLVAPDRLLVTRVDTGADGSQSVSSVVLDAPESTEFDLSAGGSAGGS [r12_981_TrMRF] | -0.918 ± 0.36
SAGGSAGGSAGPKSIPLDNATVTEFDSPNGDKVFIFSHPNKKKRLAILKDGKLVKEIPIESAGGSAGGSAGG [r11_1038_TrMRF] | 0.0908 ± 0.31
SAGGSMETTTLSSTPAELIATVEAEAAAAGKTISEITVTEDPATGLATVPVTIEITPAPALAPAARRSAGGS [r16_584_JUSTAS] | 0.722 ± 0.065
SAGTVFVAHSDDRPPVAAPETGTVTLPAPDGARVTLRRLPDGTAVVTPDGGESRTLGPGARVEVRLLPASAG [r5_869_TrMRF] | -0.156 ± 0.37
SAGGSAGGWFWVIKAEYPKNGRERSIQIPNEATDEDDVKEEVKELAEDLGAPIKKVEIEWIDPESAGGSAGG [r6_718_TrROS] | -0.474 ± 0.34
SAGGSVTLPPEEARAYAEAHPDRDLVLSMRPDDSTVTLELSVDPAAPGALSVRRREVFDPAGNATVVDSAGG [r13_481_JUSTAS] | 0.308 ± 0.13
SAGVKIKWEPIDRDPKNGHVYYSITIKVPKDGKPLDEIPIGMYQFDNDDGKWEPMPEEDIKQQAKDLLNSAG [r5_909_TrROS] | 0.0649 ± 0.34
SAGGSAGGSAAGFTAPVVQVRTENGKIYIDVKNSSVSLTVPENAEITPLESEVVKITPLPAPSAGGSAGGSA [r18_468_JUSTAS] | 0.542 ± 0.1
SAGGVIGTRKKVNKIEKPVPEGATTTPSIIGNTTILTTTAPDGSTVTVTLTKTEPIPGKPDVSEKYEASAGG [r13_804_JUSTAS] | 0.11 ± 0.042
SMVYVPEKNVIIEESEKLFYDPNKPRDLRVKTTPVIEVSPSGEKKTLKTEITFYNPEGNPIFTEESEIEISA [r9_383_JUSTAS] | -0.399 ± 0.22
SAGGSAGPMVKTTEFSAVYTGPGGVSRGPVAVTVEIPPGDPSNPVLTVTLPDGTPRTLAAGEVEAASAGGSA [r15_954_JUSTAS] | -0.672 ± 0.36
SAGGSAGGSAPLVLVAPGDAPVTVYPDPETGTYVAVFPDGSVLVAPVVGDVVPVVLLPPGLASAGGSAGGSA [r18_405_TrMRF] | 0.677 ± 0.19
SAGGSAGGSAMNVTTETRTDPVTGNTTTTTTYTDTGEVVTTTTTTPPETTTTTTTTTSLTKSAGGSAGGSAG [r3_126_JUSTAS] | 0.982 ± 0.07
SAGGSAGGMKITITFPDGTKKEIEVESEEELLEAIKKLAEELGLEKEVTVTVEYNGKTYTITLKSAGGSAGG [r6_531_TrROS_Hall] | 5.13 ± 0.25
SAGGSAGGSMPVTVTVTTPDGTTQTLTADAPPAQTFTVTVTGPDGDPRPVRVTVHGTTVTVEGSAGGSAGGS [r12_784_TrMRF] | 0.227 ± 0.22
SAGGSVVTGVDEEELRAVAEALRAAGHTLADVRIERYPEDGTYRMTVTLVDPATAAPLADVLMVAKASAGGS [r16_750_JUSTAS] | 0.887 ± 0.13
